T1: CCoV-HuPn-2018 S domain B (receptor-binding domain, RBD), residues 523-671 (CCoV-HuPn-2018 (canine coronavirus))
T1 chain: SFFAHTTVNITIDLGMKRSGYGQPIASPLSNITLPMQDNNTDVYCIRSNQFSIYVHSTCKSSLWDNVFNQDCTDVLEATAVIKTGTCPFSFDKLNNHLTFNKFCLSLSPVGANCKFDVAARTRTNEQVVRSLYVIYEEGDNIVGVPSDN


Assays:
[1] = target: FCoV-23 S domain B (receptor-binding domain, RBD), residues 529-677 (FCoV-23 (feline coronavirus)); assay: BLI; […]; global 1:1 fit; […]
[2] = target: T1, CCoV-HuPn-2018 S domain B …; assay: BLI
cryo-EM structure = target: the molecule itself; assay: cryo-EM structure

| Molecule | Kd [1] | Kd [2] | also measured |
| --- | --- | --- | --- |
| Canis lupus familiaris APN ectodomain fused to a human Fc fragment (CfAPN-Fc) (from UniProt P79143 71-975) (Fc fusion) | 1.3 nM | – | – |
| Felis catus APN ectodomain fused to a human Fc fragment (FcAPN-Fc) (from UniProt P79171 64-967) (Fc fusion) | 11 nM | – | – |
| Canis lupus familiaris APN ectodomain fused to a human Fc fragment (CfAPN-Fc) (Fc fusion) LAQSKPWNHYRLPKTLIPSSYNVTLRPYLTPNSNGLYTFKGSSTVRFTCKESTSMIIIHSKKLNYTNIQGQRVALRGVGGSQAPAIDRTELVEVTEYLVVHLREPLQVNSQYEMDSKFEGELADDLAGFYRSEYTENGVKKVLATTQMQAADARKSFPCFDEPAMKATFNITLIHPSNLVALSNMLPRGPSVPFTEEPNWNVTEFETTPIMSTYLLAYIVSEFKNVQENTPSNVLIRIWARPSAMDQGHGNYALRVTGPILDFFSRHYDTPYPLNKSDQIALPDFNAGAMENWGLVTYRESALLYDPQSSSIGNKERVVTVIAHELAHQWFGNLVTLEWWNDLWLNEGFASYVEYLGADYAEPTWNLKDLIVLNEVYRVMAVDALASSHPLSSPASEVNTPAQISEVFDSISYSKGASVLRMLSSFLTEDLFKKGVASYLHTFAYQNTIYLDLWNHLQWALGNQTAINLPYTVNAIMDRWILQMGFPVVTVDTTTGTLSQKHFLLDPQSNVTRPSKFNYLWIIPISSVKSGTQQAHYWMPDNAKVQNDLFKTTGDEWVLLNLNVTGYYLVNYDQNNWKKIHTQLQTDLSVIPVINRAQVIHDTFDLASAQIVPVTLALNSTLFLNQETEYMPWEAALSSLSYFKLMFDRSEVYGPMKNYLRKQVTPLFNHFEKITQNWTDHPQTLTEQYNEINAVSTACTYGVPKCKDLVSTLFAEWRKNPQNNPIYPNLRSTVYCNAIAQGGEEEWNFVWEQFRNTSLVNEADKLRSALACSTQVWILNRYLSYTLNPEFIRKQDVISTLSSIASNVIGQSLAWDFIQSNWKKLFEDYGTGSFSFSNLIQAVTRRFSTEFELQQLEQFKANNMDTGFGSGTRALEQALEKTKANIKWVKENKEAVLQWFRENSQ | – | 2.6 nM | – |
| Felis catus APN ectodomain fused to a human Fc fragment (FcAPN-Fc) (Fc fusion) DQSKPWNVYRLPKTLIPDSYNVTLRPYLTPNNKGLYVFTGTNIVRFTCKESTNIVIIHSKRLNYTSHQGHMVALSGVGGFHPQPVIVRTELVELTEYLVVHLQEPLVAGRQYEMNSEFQGELADDLAGFYRSEYMENGVKKVLATTHMQATEARKSFPCFDEPAMKATFNITIIHPNNLVALSNMLPRGPSVPFGEDPTWKVTEFETTPIMSTYLLAYIVSEFSYVETRAPSGVLIRIWARPSAINQGHGDYALKVTGPILDFFSQHYDTPYPLNKSDQIALPDFNAGAMENWGLVTYRESALLYDRQSSSSGNQERVVTVIAHELAHQWFGNLVTLEWWNDLWLNEGFASYVEYLGADFAEPTWNLKDLMVLNDVYRVMAVDALASSHPLSTPASEINTPAQISEVFDSISYSKGASVLRMLSNFLTEDLFKMGIASYLHTYKYGNTIYLNLWEHLQQVVDKQPTIKLPDTVSAIMDRWILQMGFPVITVDTQTGTISQQHFLLDPQSVVTRPSQFNYLWIVPISSVRSGSPQAHYWLPGVEKAQNDLFKTTANDWVLLNLNVTGYYLVNYDNENWKKIQTQLQTDLSVIPVINRAQVIHDAFNLASAQKVPVTLALNNTLFLIQETEYMPWQAALSSLSYFKLMFDRSEVYGPMKRYLKKQVTPLFNHFERVTKNWTDHPQTLMDQYSEINAVSTACSYGVPECEKLAATLFAQWKKNPQNNPIHPNLRSTVYCNAIAQGGEEEWNFVWEQFLKAELVNEADKLRGALACSNQVWILNRFLSYTLDPNLIRKQDVTSTLSSISSNVVGQTLVWDFVQSNWKKLFQDYGTGSFSFSNLIQAVTRRFSTEFELQQLEQFKKNNMDTGFGSATRALEQALEKTKANLKWVKENKDVVLRWFTENS | – | 28 nM | – |
| Felis catus APN ectodomain dimer without the Fc fusion (FcAPN) (domain or fragment) DQSKPWNVYRLPKTLIPDSYNVTLRPYLTPNNKGLYVFTGTNIVRFTCKESTNIVIIHSKRLNYTSHQGHMVALSGVGGFHPQPVIVRTELVELTEYLVVHLQEPLVAGRQYEMNSEFQGELADDLAGFYRSEYMENGVKKVLATTHMQATEARKSFPCFDEPAMKATFNITIIHPNNLVALSNMLPRGPSVPFGEDPTWKVTEFETTPIMSTYLLAYIVSEFSYVETRAPSGVLIRIWARPSAINQGHGDYALKVTGPILDFFSQHYDTPYPLNKSDQIALPDFNAGAMENWGLVTYRESALLYDRQSSSSGNQERVVTVIAHELAHQWFGNLVTLEWWNDLWLNEGFASYVEYLGADFAEPTWNLKDLMVLNDVYRVMAVDALASSHPLSTPASEINTPAQISEVFDSISYSKGASVLRMLSNFLTEDLFKMGIASYLHTYKYGNTIYLNLWEHLQQVVDKQPTIKLPDTVSAIMDRWILQMGFPVITVDTQTGTISQQHFLLDPQSVVTRPSQFNYLWIVPISSVRSGSPQAHYWLPGVEKAQNDLFKTTANDWVLLNLNVTGYYLVNYDNENWKKIQTQLQTDLSVIPVINRAQVIHDAFNLASAQKVPVTLALNNTLFLIQETEYMPWQAALSSLSYFKLMFDRSEVYGPMKRYLKKQVTPLFNHFERVTKNWTDHPQTLMDQYSEINAVSTACSYGVPECEKLAATLFAQWKKNPQNNPIHPNLRSTVYCNAIAQGGEEEWNFVWEQFLKAELVNEADKLRGALACSNQVWILNRFLSYTLDPNLIRKQDVTSTLSSISSNVVGQTLVWDFVQSNWKKLFQDYGTGSFSFSNLIQAVTRRFSTEFELQQLEQFKKNNMDTGFGSATRALEQALEKTKANLKWVKENKDVVLRWFTENS | – | – | stoichiometry N (cryo-EM structure): 2 |
